# Values quoted from earlier work as cited in patent publication US20230303640A1, “EXENDIN-4 PEPTIDE ANALOGS” (TXP Pharma AG, priority 2020, published 2023).
# Target: T1, human GLP-1 receptor (Homo sapiens, UniProt P43220)
# T1 construct: expressed in transfected cells; host or cells: CHO-K1
# Settings: FIG. 3; data included and detailed in PCT/IB2015/000553 (WO/2015/162485)
# T1 sequence (P43220 24-463): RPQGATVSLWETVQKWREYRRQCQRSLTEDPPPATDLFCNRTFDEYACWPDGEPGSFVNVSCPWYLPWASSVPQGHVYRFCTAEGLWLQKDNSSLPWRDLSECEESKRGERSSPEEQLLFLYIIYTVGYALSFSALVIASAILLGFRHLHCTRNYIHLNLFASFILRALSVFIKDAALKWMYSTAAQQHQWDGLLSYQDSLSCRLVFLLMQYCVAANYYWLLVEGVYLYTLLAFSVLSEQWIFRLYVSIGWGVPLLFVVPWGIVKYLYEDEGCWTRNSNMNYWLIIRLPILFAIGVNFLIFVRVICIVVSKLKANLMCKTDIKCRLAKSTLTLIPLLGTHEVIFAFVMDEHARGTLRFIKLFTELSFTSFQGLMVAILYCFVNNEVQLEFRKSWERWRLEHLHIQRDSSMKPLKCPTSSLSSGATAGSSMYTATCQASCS
substance,measurement,value
"Ac-His-Gly-Glu-Gly-Thr-Phe-Thr-Ser-Asp-Val-Ser-Ser-Tyr-Leu-Glu-Gly-Gln-Ala-Ala-Lys-Glu-Phe-Ile-Ala-Trp-Leu-Val-Lys-Gly-Arg-Gly-(Lys-Lys-Ac)Lys-NH2 (HGEGTFTSDVSSYLEGQAAKEFIAWLVKGRG; N-acetyl; C-terminal (Lys-Lys-Ac)Lys amide; printed: His-Gly-Glu-Gly-Thr-Phe-Thr-Ser-Asp-Val-Ser-Ser-Tyr-Leu-Glu-Gly-Gln-Ala-Ala-Lys-Glu-Phe-Ile-Ala-Trp-Leu-Val-Lys-Gly-Arg-Gly-) [Analogue 3, GLP-1 analogue with C-terminal BAP, from WO/2015/162485]",EC50,0.04 nM
